Here are results for one molecule from patent publication US6013288A, “Process for manufacturing beer” (Suntory Limited, priority 1995, dated 2000).

The nature of the assay: Decomposition of purine nucleosides in wort by nucleoside phosphorylase. The assay is classed as biochemical. The note with it: 7 units/ml, 3 hours at 30° C., wort extract concentration 12.5%. As to the method:
Nucleoside phosphorylase derived from calf spleen (Boehringer) was added to wort having an extract concentration of 12.5% to a concentration of 7 units/ml, and allowed to react for 3 hours at 30° C. The amount of purine compounds in the wort to which enzyme was added and a wort held for 3 hours at 30° C. without adding enzyme as the control were measured using the method described in Experiment 1.

B1: nucleoside phosphorylase derived from calf spleen: Nucleoside phosphorylase derived from calf spleen (Boehringer), EC 2.4.2.1 (protein, UniProt P55859 1-289, looked up)
Purine nucleoside …: MANGYTYEDYQDTAKWLLSHTEQRPQVAVICGSGLGGLVNKLTQAQTFDYSEIPNFPESTVPGHAGRLVFGILNGRACVMMQGRFHMYEGYPFWKVTFPVRVFRLLGVETLVVTNAAGGLNPNFEVGDIMLIRDHINLPGFSGENPLRGPNEERFGVRFPAMSDAYDRDMRQKAHSTWKQMGEQRELQEGTYVMLGGPNFETVAECRLLRNLGADAVGMSTVPEVIVARHCGLRVFGFSLITNKVIMDYESQGKANHEEVLEAGKQAAQKLEQFVSLLMASIPVSGHTG
On to B1, for which the “decomposition ratio of each purine nucleoside” value was “roughly 60%”.
